Test results reported in the supplement of paper PMC9170038.

Tested on: MS2 coat protein
Assay: apparent KD of MS2 coat protein; designed switch direction (-1 OFF switch, 1 ON switch): 1; higher = weaker reporter binding
In short: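 Stalled E. coli RNA polymerase transcribed designed RNA switches on Illumina chips, which were then titrated with SNAP-549-labelled MS2 coat protein, doubling from 0.7 or 1.5 nM to 3 µM. Steps lasted from 0.8–1.5 h at the lowest concentration to 10–20 min at the highest. The apparent KD is each design's median over clusters of curve-fitted normalised fluorescence.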

[1] = input ligand: microRNA oligo, concentration not stated
[2] = Eterna round: R95, input ligand: microRNA oligo, concentration not stated
[3] = Eterna round: R95, input ligand: FMN 200 uM
[4] = Eterna round: R95, input ligand: none

| Sequence | apparent KD of MS2 coat protein (input ligand: FMN 200 uM) [nM] | apparent KD of MS2 coat protein [1] [nM] | apparent KD of MS2 coat protein (input ligand: none) [nM] | apparent KD of MS2 coat protein [2] [nM] | apparent KD of MS2 coat protein [3] [nM] | apparent KD of MS2 coat protein [4] [nM] |
| --- | --- | --- | --- | --- | --- | --- |
| GUGGUUCUCGUAGGAUAUGUAGGAUAUCCCUACAUGAGGAUCACCCAUGUUCGCAUGGGAGAAGGACAGAAGGACGAUCGCUAA [pwkr ssNG2 2FMN + 1F5.16] (Eterna round: R96, puzzle: Same State NG 2) | 20.9 | 11.1 | 53.5 |  |  |  |
| GUUACAUGAGGAUCACCCAUGUAUGUGUGGGAGUAAGUGUCUUAGGAUAUCUAGAAUUUAAUUUAAGAGAAGGAAGAUUGUUGU [JMF's solution 49] (Eterna round: R96, puzzle: Same State NG 3) | 104 | 61 | 83 |  |  |  |
| GUUACAUGAGGAUCACCCAUGUAUGUGUGGGAGUAAGUGUCUUAGGAUAUCUAGCAUUUAAUUUAAGAGAAGGAAGAUUGUUGU [JMF's solution 51] (Eterna round: R96, puzzle: Same State NG 3) | 79.7 | 59.9 | 84.1 |  |  |  |
| GUUACAUGAGGAUCACCCAUGUAUGUGUGGGAGUAAGUGUCUUAGGAUAUCUAUCAGUUAAUUUAAGAGAAGGAAGAUUGUUGU [JMF's solution 90] (Eterna round: R96, puzzle: Same State NG 3) | 126 | 111 | 115 |  |  |  |
| GUUACAUGAGGAUCACCCAUGUAUGUGUGGGAGUAAGUGUCUUAGGAUAUCUAUCAUUUUAUUUAAGAGAAGGAAGAUUGUUGU [JMF's solution 93] (Eterna round: R96, puzzle: Same State NG 3) | 121 | 77.4 | 111 |  |  |  |
| GUUACAUGAGGAUCACCCAUGUAUGUGUGGGAGUAAGUGUCUUAGGAUAUCUAUGAAUUAAUUUAAGAGAAGGAAGAUUGUUGU [JMF's solution 73] (Eterna round: R96, puzzle: Same State NG 3) | 107 | 73.3 | 112 |  |  |  |
| GUUACAUGAGGAUCACCCAUGUAUGUGUGGGAGUAAGUGUCUUAGGAUAUCUAUGAUGUAAUUUAAGAGAAGGAAGAUUGUUGU [JMF's solution 76] (Eterna round: R96, puzzle: Same State NG 3) | 135 | 128 | 150 |  |  |  |
| GUUACAUGAGGAUCACCCAUGUAUGUGUGGGAGUAAGUGUCUUAGGAUAUCUAUGAUUUAAUUUGAGAGAAGGAAGAUUGUUGU [JMF's solution 87] (Eterna round: R96, puzzle: Same State NG 3) | 88.8 | 76.4 | 102 |  |  |  |
| GUUACAUGAGGAUCACCCAUGUAUGUGUGGGAGUAAGUGUCUUAGGAUAUCUAUGAUUUGAUUUAAGAGAAGGAAGAUUGUUGU [JMF's solution 78] (Eterna round: R96, puzzle: Same State NG 3) | 122 | 80.9 | 110 |  |  |  |
| GUUACAUGAGGAUCACCCAUGUAUGUGUGGGAGUAAGUGUCUUAGGAUAUCUAUUAAUUAAAUUAAGAGAAGGAAGAUUGUUGU [JMF's solution 14] (Eterna round: R96, puzzle: Same State NG 3) | 127 | 83.7 | 112 |  |  |  |
| GUUACAUGAGGAUCACCCAUGUAUGUGUGGGAGUAAGUGUCUUAGGAUAUCUGUAAUUUAAUUUAAGAGAAGGAAGAUUGUUGU [JMF's solution 31] (Eterna round: R96, puzzle: Same State NG 3) | 128 | 94.5 | 121 |  |  |  |
| GUUACAUGAGGAUCACCCAUGUAUGUGUGGGAGUAAGUGUCUUAGGAUAUCUGUUAUUUAAUAUAAGAGAAGGAAGAUUGUUGU [JMF's solution 44] (Eterna round: R96, puzzle: Same State NG 3) | 123 | 76.5 | 108 |  |  |  |
| GUUACAUGAGGAUCACCCAUGUAUGUGUGGGAGUAAGUGUCUUAGGAUAUCUGUUAUUUAAUCUAAGAGAAGGAAGAUUGUUGU [JMF's solution 45] (Eterna round: R96, puzzle: Same State NG 3) | 113 | 66.7 | 94.1 |  |  |  |
| GUUACAUGAGGAUCACCCAUGUAUGUGUGGGAGUAAGUGUCUUAGGAUAUCUGUUAUUUAAUUUCAGAGAAGGAAGAUUGUUGU [JMF's solution 48] (Eterna round: R96, puzzle: Same State NG 3) | 125 | 91.2 | 105 |  |  |  |
| GUUACAUGAGGAUCACCCAUGUAUGUGUGGGAGUAAGUGUCUUAGGAUAUCUGUUUUUUAAUUUAAGAGAAGGAAGAUUGUUGU [JMF's solution 33] (Eterna round: R96, puzzle: Same State NG 3) | 105 | 59.6 | 112 |  |  |  |
| GUUACAUGAGGAUCACCCAUGUGUGUGUGGGAGUAAGUGGCUUAGGAUAUCUAUGAUUUAAGUUAAGAGAAGGAAGAUUGUUGU [SS-NG3-LRO02] (Eterna round: R96, puzzle: Same State NG 3) | 194 | 204 | 272 |  |  |  |
| GUUACAUGAGGAUCACCCAUGUGUGUGUGGGAGUGAGUGGCUUAGGAUAUCUAUGAUUUUAGUUAAGAGAAGGAGGAUUGUUGU [SS-NG3-LRO06] (Eterna round: R96, puzzle: Same State NG 3) | 365 | 322 | 380 |  |  |  |
| GUUAGGAAUCUAGCAAACAUGAGGAUCACCCAUGUAAGUGGGAAGGAUAUGGUACAGAAACUGUACCAGAAGGUCUUAUUGAUU [Omei SS(NG) 3 AV5] (Eterna round: R96, puzzle: Same State NG 3) | 81.7 | 247 | 371 |  |  |  |
| GUUAGGAAUCUAGCAUACAUGAGGAUCACCCAUGUAAGUGGGAAGGAUAUGGUACAGAAACUGUACCAGAAGGUCUUAUUGUUU [Omei SS(NG) 3 AV7] (Eterna round: R96, puzzle: Same State NG 3) | 149 | 366 | 330 |  |  |  |
| GUUAGGAAUCUAGCCAACAUGAGGAUCACCCAUGUUAGUGGGAAGGAUAUGGUACAGAAACUGUACCAGAAGGUCUUAUUGUUU [Omei SS(NG) 3 AV10] (Eterna round: R96, puzzle: Same State NG 3) | 75.4 | 54.6 | 96.6 |  |  |  |
| GUUAUACAUGAGGAUCACCCAUGUCAAUGUAGUCGAGGAUAUGGGCAGCUAUGAGGCGUACUAGAAGGCGAUGAGU [JL-ss1-3.14 ViennaUCT mod] (puzzle: Same State 1) |  |  |  | 122 |  |  |
| GUUAUUAAUGCAGGAUAUGAUUAACAUGAGGAUCACCCAUGUGGUGUUGUGAGUAAGGAGAGUGAUCAGAAGGGCAUUUUUUUU [JMF's solution 40] (Eterna round: R96, puzzle: Same State NG 2) | 890 | 815 | 764 |  |  |  |
| GUUUCAUCGAAAGGAUAUGUAUUGAUUGCCAUUGCAGAAGGUUCUCAGACAUGAGGAUCACCCAUGUCAAGCGGAAACGUAGUA [Eternabot solution 37] (Eterna round: R96, puzzle: Same State NG 1) | 20.1 | 15.4 | 47.6 |  |  |  |
| UAAACUUCUUUUAGUGUGUUGCCAGUUUUACAUGAGGAUCACCCAUGUUAAGUAUUGUGGUAUUUUGUUCGUCUUAA [JR_SHM208A_Sub074] (puzzle: Sensor for hsa-mir-208a) |  |  |  | 14.2 | 15.2 | 15.3 |
| UAAAGUUAGCGAGGAUAUCGUUUAUUGAAGUUACGAGAAGGCGCUCUUCUUACAUGAGGAUCACCCAUGUCUGUUUUGCAUGAU [JR_SSNG1_Sub067] (Eterna round: R96, puzzle: Same State NG 1) | 52 | 63 | 71.3 |  |  |  |
| UAAAUAAAGUAAGGAUAUACAUGAGGAUCUCUCGUAGAAGGUACUAUACAUGAGGAUCACCCAUGUGCCGGUCAAUAGACUGGA [Mat - Same State NG 1 - JL mod - D9] (Eterna round: R96, puzzle: Same State NG 1) | 589 | 131 | 446 |  |  |  |
| UAAGUAUGUUGAGGAUAUUAUGUUUGGUGAGAUGACAUGAGGAUCACCCAUGUGUUAUCAGUUCUUAAGAAGGCAACAUACUUA [JR_SSNG2_Sub092] (Eterna round: R96, puzzle: Same State NG 2) |  | 20 |  |  |  |  |
| UAAGUCAUGUAAGGAUAUGCAGCCGAAACGGCUGCAGAAGGUACUAUAAUUACAUGAGGAUCACCCAUGUUAUAAAAUUAAAAU [Mat - Same State NG 1 - JL mod - D79] (Eterna round: R96, puzzle: Same State NG 1) | 20.8 | 31.1 | 57.3 |  |  |  |
| UAAUUAAGUCAAGGAUAUCACGUCGUUUAGACGUGAGAAGGUGACCAAUACAUGAGGAUCACCCAUGUAAUACAUGAAUAAUUA [SSNG1/12-B3] (Eterna round: R96, puzzle: Same State NG 1) | 35.5 | 46.9 | 51.4 |  |  |  |
| UACAAUCUAUCUGAGGAUAUCAUGAAUAAAACAUGAGGAUCACCCAUGUGCAGGAAAACUGCAUAUGAGAAGGCAGAUAGAUUGA [Mat - Same State 2 - Mod - D12] (puzzle: Same State 2) |  |  |  | 411 | 45.9 | 1450 |
